Experimental data from publication PMC7293037, “Fuse to defuse: a self-limiting ribonuclease-ring nuclease fusion for type III CRISPR defence” (Nucleic Acids Research, 2020).

Tests used:
[1] = system: Csx1-Crn2 S452Y (Marinitoga piezophila); assay: EMSA; details: cyclic tetra-adenylate, head-to-tail closed ring (no free 5' or 3' end); EMSA: 10 nM labelled cA4, 20 mM Tris-HCl pH 7.5, 150 mM NaCl, 2 mM MgCl2, 2 uM BSA, 10 min at 25 C; native 15% PAGE in 1x TBE at 28 C
[2] = system: Csx1-Crn2 H495A (Marinitoga piezophila); assay: EMSA; details: apparent; both CARF and Crn2 sites intact, no cA4 cleavage in Crn2 site; cyclic tetra-adenylate, head-to-tail closed ring (no free 5' or 3' end); EMSA: 10 nM labelled cA4, 20 mM Tris-HCl pH 7.5, 150 mM NaCl, 2 mM MgCl2, 2 uM BSA, 10 min at 25 C; native 15% PAGE in 1x TBE at 28 C

Work on AAAA [cA4 (cyclic tetra-adenylate)] yielded a Kd [1] of 1000 nM and a Kd [2] of 20 nM.
